Literature values, collected in patent publication US6329011A, “Antimicrobial agent against acid-resistant and heat-resistant bacteria” (Director General of Shikoku National Agricultural …, priority 2000, dated 2001).

Columns and labels:
[1] = heated under acidic conditions at 100° C. for 10 min.
guinea pigs = conditions: one oral administration, 103 to 229 mg/kg body weight, observation for 7 days

thionin
antimicrobial activity after heating [1]: does not lose antimicrobial activity | degradation by digestive enzymes such as trypsin (trypsin): degraded rapidly | abnormalities after oral administration (guinea pigs): did not result in detection of any abnormalities
